Measurements from patent publication US9561289B2, “Peptides for inhibiting tumor growth” (OSPEDALE SAN RAFFAELE SRL, priority 2012, dated 2017).
Where two headings read alike, the source gives them in different places. *1 amine or outer side, *2 acyl side, *3 side chain or, on linkers, in order; H or OH if unused. Primed or numbered codes have the meaning given here. Side-chain parts run from the residue outwards. [ ]: non-standard residue; d: D form. The star is where a group is joined. βAsp = O=C(O)[C@H](CC(=O)[*:2])N[*:1]; SMCC = sulfo-SMCC linker; OH′ = O*

Key:
[1] = biological target: T1, αvβ3 (Homo sapiens, UniProt P05106+P06756); test: Competitive integrin binding assay (isoDGR/STV-HRP) on αvβ3-coated plates; details: mean ± SE
T1 construct: purchased Immunological Sciences (Rome, Italy)
Method: (§1) A conjugate consisting of biotinylated acetyl-Ciso[…] (SEQ ID NO:36) peptide complexed with streptavidin-peroxidase conjugate (isoDGR/STV-HRP) was first prepared as described previously. […] Each mixture was then added to microtiter plates coated with integrins (αvβ3, αvβ5, αvβ6, […], or α5β1) and incubated for 2 h at room temperature. After washing, each well was incubated with 70 μl of chromogenic solution (o-phenylenediamine dihydrochloride) for 20 min, at room temperature. The chromogenic reaction was stopped by adding an equal volume of 1 N sulfuric acid. The absorbance at 490 nm was then measured using a microtiter plate reader.
(§2) The binding affinity and selectivity of each peptide for different integrins were then analyzed by competitive binding assay, using αvβ3-, αvβ5-, αvβ6-, αvβ8- and α5β1-coated plates and isoDGR/STV-HRP, an ac-isoDGR-2C/peroxidase complex, as competitor.

[2] = biological target: T2, αvβ5 (Homo sapiens, UniProt P06756+P18084); test: Competitive integrin binding assay (isoDGR/STV-HRP) on αvβ5-coated plates; details: mean ± SE
T2 construct: purchased Immunological Sciences (Rome, Italy)
Method: as §1, §2

[3] = biological target: T3, αvβ6 (Homo sapiens, UniProt P06756+P18564); test: Competitive integrin binding assay (isoDGR/STV-HRP) on αvβ6-coated plates; details: mean ± SE
T3 construct: purchased R&D System (Minneapolis, Minn.)
Method: as §1, §2

[4] = biological target: T4, α5β1 (Homo sapiens, UniProt P05556+P08648); test: Competitive integrin binding assay (isoDGR/STV-HRP) on α5β1-coated plates; details: mean ± SE
T4 construct: purchased Immunological Sciences (Rome, Italy)
Method: as §1, §2

[5] = Asn deamidation of NGR peptides by mass spectrometry; type: physicochemical; details: 37° C., 0.1 M ammonium bicarbonate buffer, pH 8.5
Method: Orbitrap-ESI mass spectrometry analysis of NGR#3 and NGR-2C at various time points after incubation at 37° C. in 0.1 M ammonium bicarbonate buffer (Ambic), pH 8.5. During the analyses the NGR#3 forms dimers. +0 (no deamidation), +0.5 (one deamidation/molecule) and +1 (two deamidations/molecule) correspond to the difference between found and expected molecular masses in daltons.
It is well known that NGR may undergo Asn deamidation generating isoDGR, an integrin binding motif. To assess whether the molecular scaffold of NGR might affect the deamidation rate we analyzed the molecular masses of NGR#3 and […] (SEQ ID NO:37) (NGR-2C) before and after incubation at 37° C. in 0.1 M ammonium bicarbonate buffer, pH 8.5 (AmBic) for various times. […] The extent of binding of heat-treated NGR-HSA was very similar to that obtained with isoDGR#3-HSA, i.e. a conjugate prepared using a similar peptide having isoAsp in place of Asn (FIG. 17B, right).

[6] = biological target: T5, Human integrin αvβ3 (human, UniProt P06756 31-1048; P05106 27-788, limits assumed); test: competitive binding assay, integrin-coated plate, probe isoDGR/STV-HRP
T5 construct: Bought from Immunological Sciences; coated on microtiter plates or spotted on nitrocellulose; also called avb3; purified αvβ3-integrin
T5 sequence (P06756 31-1048 limits assumed, form in doubt, chain 1 of 2): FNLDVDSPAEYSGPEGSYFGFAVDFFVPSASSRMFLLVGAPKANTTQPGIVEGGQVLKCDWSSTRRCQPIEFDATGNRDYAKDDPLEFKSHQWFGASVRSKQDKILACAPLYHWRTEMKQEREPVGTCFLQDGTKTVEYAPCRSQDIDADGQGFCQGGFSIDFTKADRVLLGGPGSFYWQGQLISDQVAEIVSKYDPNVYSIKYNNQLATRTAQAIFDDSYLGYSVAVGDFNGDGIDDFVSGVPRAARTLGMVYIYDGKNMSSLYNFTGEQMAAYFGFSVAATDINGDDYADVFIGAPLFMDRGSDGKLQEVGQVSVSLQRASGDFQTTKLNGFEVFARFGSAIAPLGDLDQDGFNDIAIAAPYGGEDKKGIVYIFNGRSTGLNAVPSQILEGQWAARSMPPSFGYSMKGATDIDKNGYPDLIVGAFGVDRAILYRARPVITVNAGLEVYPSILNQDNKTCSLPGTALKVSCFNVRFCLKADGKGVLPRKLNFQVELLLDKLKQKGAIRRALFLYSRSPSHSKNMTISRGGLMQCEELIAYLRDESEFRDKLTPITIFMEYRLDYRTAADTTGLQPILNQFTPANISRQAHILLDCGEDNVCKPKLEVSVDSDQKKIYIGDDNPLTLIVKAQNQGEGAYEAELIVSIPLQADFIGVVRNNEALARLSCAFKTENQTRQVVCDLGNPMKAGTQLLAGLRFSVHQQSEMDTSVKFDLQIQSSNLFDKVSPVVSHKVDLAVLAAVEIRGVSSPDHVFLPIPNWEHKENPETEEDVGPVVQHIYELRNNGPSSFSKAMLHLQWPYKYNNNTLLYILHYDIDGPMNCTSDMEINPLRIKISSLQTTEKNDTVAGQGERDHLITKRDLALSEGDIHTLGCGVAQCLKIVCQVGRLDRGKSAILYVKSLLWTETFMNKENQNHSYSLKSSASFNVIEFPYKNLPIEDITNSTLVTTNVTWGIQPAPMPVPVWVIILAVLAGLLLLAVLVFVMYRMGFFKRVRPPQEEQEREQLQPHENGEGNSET
T5 sequence (P05106 27-788 limits assumed, form in doubt, chain 2 of 2): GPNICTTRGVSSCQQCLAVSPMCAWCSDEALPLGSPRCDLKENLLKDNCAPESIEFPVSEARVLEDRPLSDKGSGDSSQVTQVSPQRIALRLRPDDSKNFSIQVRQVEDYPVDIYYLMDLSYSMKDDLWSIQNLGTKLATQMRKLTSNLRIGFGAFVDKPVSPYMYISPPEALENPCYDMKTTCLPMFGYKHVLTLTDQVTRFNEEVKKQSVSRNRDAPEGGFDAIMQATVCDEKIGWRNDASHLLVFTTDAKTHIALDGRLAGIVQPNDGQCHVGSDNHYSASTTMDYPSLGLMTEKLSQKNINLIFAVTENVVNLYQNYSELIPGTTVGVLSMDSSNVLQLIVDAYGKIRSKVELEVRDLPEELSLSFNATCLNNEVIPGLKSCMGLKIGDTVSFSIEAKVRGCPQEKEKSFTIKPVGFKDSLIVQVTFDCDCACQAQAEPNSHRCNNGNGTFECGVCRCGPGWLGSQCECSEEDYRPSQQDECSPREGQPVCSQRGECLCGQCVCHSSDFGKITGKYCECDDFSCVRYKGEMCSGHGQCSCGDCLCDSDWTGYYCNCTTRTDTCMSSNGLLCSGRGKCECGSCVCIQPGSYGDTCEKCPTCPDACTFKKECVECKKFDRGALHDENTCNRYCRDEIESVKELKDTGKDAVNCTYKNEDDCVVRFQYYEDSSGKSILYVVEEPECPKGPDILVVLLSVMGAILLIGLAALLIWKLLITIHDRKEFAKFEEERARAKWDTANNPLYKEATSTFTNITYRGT
Method: (§3) A conjugate consisting of biotinylated acetyl-Ciso[sequence] […] Each mixture was then added to microtiter plates coated with integrins (αvβ3, αvβ5, αvβ6, αvβ38, or α5β1) and incubated for 2 h at room temperature. After washing, each well was incubated with 70 µl of chromogenic solution (o-phenylenediamine dihydrochloride) for 20 min, at room temperature. The chromogenic reaction was stopped by adding an equal volume of 1 N sulfuric acid. The absorbance at 490 nm was then measured using a microtiter plate reader.

[7] = biological target: T6, Human integrin αvβ5 (human, UniProt P06756 31-1048; P18084 24-799, limits assumed); test: as above
T6 construct: Bought from Immunological Sciences; coated on microtiter plates
T6 sequence (P06756 31-1048 limits assumed, chain 1 of 2): as the sequence (P06756 31-1048 limits assumed, form in doubt, chain 1 of 2) above
T6 sequence (P18084 24-799 limits assumed, chain 2 of 2): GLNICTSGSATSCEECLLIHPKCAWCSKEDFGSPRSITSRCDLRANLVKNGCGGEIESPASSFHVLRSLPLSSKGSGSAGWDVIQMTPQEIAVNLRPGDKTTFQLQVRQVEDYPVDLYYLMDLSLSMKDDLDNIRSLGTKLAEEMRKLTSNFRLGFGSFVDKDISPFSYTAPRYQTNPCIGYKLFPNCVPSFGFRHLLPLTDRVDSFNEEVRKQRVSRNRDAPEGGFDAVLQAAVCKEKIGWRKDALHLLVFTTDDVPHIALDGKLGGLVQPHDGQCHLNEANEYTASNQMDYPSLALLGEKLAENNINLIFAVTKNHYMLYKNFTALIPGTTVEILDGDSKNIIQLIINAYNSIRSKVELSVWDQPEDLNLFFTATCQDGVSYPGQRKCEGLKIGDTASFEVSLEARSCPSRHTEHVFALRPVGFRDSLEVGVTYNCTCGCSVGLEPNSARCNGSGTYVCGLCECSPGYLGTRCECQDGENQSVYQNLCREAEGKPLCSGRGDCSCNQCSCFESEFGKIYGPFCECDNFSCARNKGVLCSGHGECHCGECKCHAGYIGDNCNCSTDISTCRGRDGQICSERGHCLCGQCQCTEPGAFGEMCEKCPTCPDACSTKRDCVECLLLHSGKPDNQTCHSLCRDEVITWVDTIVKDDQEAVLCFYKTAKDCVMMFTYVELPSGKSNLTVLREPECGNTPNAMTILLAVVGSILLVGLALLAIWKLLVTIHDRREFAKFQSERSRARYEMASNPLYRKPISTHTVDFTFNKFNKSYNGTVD
Method: as §3

[8] = biological target: T7, Recombinant human integrin αvβ6 (human, UniProt P06756 31-992; P18564 22-707); test: as above
T7 construct: Bought from R&D System
Method: as §3

[9] = biological target: T8, Recombinant human integrin αvβ8 (human, UniProt P06756 31-992; P26012 43-684); test: as above
T8 construct: Bought from R&D System; also called αvβ38 [sic]
Method: as §3

[10] = biological target: T9, Human integrin α5β1 (human, UniProt P08648 42-1049; P05556 21-798, limits assumed); test: as above
T9 construct: Bought from Immunological Sciences; coated on microtiter plates
T9 sequence (P08648 42-1049 limits assumed, chain 1 of 2): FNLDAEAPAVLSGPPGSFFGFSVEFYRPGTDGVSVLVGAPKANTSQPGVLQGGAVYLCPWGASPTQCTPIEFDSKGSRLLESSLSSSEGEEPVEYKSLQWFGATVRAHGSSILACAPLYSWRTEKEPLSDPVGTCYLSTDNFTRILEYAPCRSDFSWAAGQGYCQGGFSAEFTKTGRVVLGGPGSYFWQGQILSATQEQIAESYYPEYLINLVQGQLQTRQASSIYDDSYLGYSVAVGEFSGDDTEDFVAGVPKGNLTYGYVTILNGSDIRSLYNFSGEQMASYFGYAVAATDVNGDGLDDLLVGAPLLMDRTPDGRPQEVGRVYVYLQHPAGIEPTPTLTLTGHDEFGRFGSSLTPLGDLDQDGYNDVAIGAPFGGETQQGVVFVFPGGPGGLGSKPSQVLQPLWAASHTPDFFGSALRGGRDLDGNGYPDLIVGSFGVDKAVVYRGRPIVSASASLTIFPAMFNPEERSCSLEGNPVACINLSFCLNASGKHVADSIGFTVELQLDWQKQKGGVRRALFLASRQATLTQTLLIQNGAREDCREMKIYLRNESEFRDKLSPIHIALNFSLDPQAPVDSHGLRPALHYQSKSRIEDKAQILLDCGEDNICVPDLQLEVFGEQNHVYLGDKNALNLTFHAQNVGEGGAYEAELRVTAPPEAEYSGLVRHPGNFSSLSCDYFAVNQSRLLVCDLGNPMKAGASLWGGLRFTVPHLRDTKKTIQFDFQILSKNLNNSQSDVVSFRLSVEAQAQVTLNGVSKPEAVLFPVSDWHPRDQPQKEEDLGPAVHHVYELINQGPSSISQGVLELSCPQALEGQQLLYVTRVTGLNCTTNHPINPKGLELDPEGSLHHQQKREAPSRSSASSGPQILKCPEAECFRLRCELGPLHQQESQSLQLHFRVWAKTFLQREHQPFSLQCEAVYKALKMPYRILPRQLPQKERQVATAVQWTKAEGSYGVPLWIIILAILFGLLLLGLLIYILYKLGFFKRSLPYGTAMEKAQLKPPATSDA
T9 sequence (P05556 21-798 limits assumed, chain 2 of 2): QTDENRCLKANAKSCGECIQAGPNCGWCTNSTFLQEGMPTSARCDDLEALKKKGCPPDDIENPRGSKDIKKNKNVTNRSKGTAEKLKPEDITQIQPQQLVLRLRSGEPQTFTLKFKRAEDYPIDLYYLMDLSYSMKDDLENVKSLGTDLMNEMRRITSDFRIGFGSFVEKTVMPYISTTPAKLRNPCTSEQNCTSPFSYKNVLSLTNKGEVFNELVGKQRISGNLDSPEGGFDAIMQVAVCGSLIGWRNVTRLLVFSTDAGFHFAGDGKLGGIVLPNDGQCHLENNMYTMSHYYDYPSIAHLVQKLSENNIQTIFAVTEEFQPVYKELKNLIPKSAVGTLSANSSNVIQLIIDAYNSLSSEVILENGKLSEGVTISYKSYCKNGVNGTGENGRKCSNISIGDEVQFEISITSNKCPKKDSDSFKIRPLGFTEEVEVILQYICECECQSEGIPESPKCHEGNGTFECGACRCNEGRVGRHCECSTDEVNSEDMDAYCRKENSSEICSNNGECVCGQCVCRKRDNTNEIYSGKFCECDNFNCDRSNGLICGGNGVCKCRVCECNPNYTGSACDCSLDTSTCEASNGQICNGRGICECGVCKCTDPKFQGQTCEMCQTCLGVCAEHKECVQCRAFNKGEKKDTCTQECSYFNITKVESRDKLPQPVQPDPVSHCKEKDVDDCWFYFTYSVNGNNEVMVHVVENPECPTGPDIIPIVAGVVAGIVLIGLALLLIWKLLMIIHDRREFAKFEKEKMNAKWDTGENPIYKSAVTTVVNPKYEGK
Method: as §3

[11] = biological target: T5, Human integrin αvβ3; test: as above; remark: listed apart in the source
Method: as §3
(§4) [b]Ki: equilibrium dissociation constant of the competitor (mean ± SEM). Ki was calculated by nonlinear regression analysis of competitive binding data by using the "One site - Fit Ki" equation of the GraphPad Prism Software (GraphPad Software, Version 5.00 San Diego, California, USA).

[12] = biological target: T6, Human integrin αvβ5; test: as above; remark: listed apart in the source
Method: as §3, §4

[13] = biological target: T7, Recombinant human integrin αvβ6; test: as above; remark: listed apart in the source
Method: as §3, §4

[14] = biological target: T8, Recombinant human integrin αvβ8; test: as above; remark: listed apart in the source
Method: as §3, §4

[15] = biological target: T9, Human integrin α5β1; test: as above; remark: listed apart in the source
Method: as §3, §4

Molecule “*AV(0:1): sulfo-SMCC-activated avidin lacking the peptide [reference compound]” has a Ki [1] greater than 2500 nM, a Ki [2] greater than 2500 nM and a Ki [3] greater than 2500 nM. For the same molecule, the Ki [4] was greater than 2500 nM.

For CNGRCGVRY [NGR-2C, reference compound], the deamidation rate [5] was “faster than that of NGR#3”.

With “c(CNGRGG) (cyclic; Cyclic peptide) [NGR#3]” the deamidation rate [5] was “reduce the deamidation rate”.

B1: c(CGisoDGRG) (peptide)
peptide: cyclo(CG[βAsp]GRG)
SMILES: N=C(N)NCCC[C@@H]1NC(=O)CNC(=O)C[C@@H](C(=O)O)NC(=O)CNC(=O)[C@H](CS)NC(=O)CNC1=O
notes: also called isoDGR#1
With B1 the Ki [6] was 103 nM, the “ratio of integrin Ki/αvβ3 Ki” value [6] was 1 and the Ki [7] was 225 nM. For the same molecule, the “ratio of integrin Ki/αvβ3 Ki” value [7] was 2, the Ki [8] was 1470 nM and the “ratio of integrin Ki/αvβ3 Ki” value [8] was 14. For the same molecule, the Ki [9] was 7270 nM, the “ratio of integrin Ki/αvβ3 Ki” value [9] was 70 and the Ki [10] was 320 nM. For the same molecule, the “ratio of integrin Ki/αvβ3 Ki” value [10] was 3.

B2: c(CisoDGRGG) (peptide)
peptide: cyclo(C[βAsp]GRGG)
SMILES: N=C(N)NCCC[C@@H]1NC(=O)CNC(=O)C[C@@H](C(=O)O)NC(=O)[C@H](CS)NC(=O)CNC(=O)CNC1=O
notes: also called isoDGR#3
Molecule B2 has a Ki [6] of 43 nM, a Ki [7] of 42 nM and a Ki [8] of 58 nM. It also gave a Ki [9] of 54 nM and a Ki [10] of 21 nM.

B3: isoDGR#1-linker conjugate, peak P1 (peptide)
peptide: cyclo(C([SMCC-NH2])G[βAsp]GRG)
notes: HPLC peak P1 (amido form); also called isoDGR#1-P1
For B3, the Ki [11] was 35 nM, the “ratio of integrin Ki/αvβ3 Ki” value [11] was 1 and the Ki [12] was 35 nM. The “ratio of integrin Ki/αvβ3 Ki” value [12] was 1, the Ki [13] was 583 nM and the “ratio of integrin Ki/αvβ3 Ki” value [13] was 17. The Ki [14] was 5600 nM, the “ratio of integrin Ki/αvβ3 Ki” value [14] was 160 and the Ki [15] was 302 nM. For the same molecule, the “ratio of integrin Ki/αvβ3 Ki” value [15] was 8.6.

For cyclo(C[βAsp]GRG) (SMILES N=C(N)NCCC[C@@H]1NC(=O)CNC(=O)C[C@@H](C(=O)O)NC(=O)[C@H](CS)NC(=O)CNC1=O, also called isoDGR#2) [c(CisoDGRG)], the Ki [6] was 483 nM, the “ratio of integrin Ki/αvβ3 Ki” value [6] was 1 and the Ki [7] was 492 nM. The “ratio of integrin Ki/αvβ3 Ki” value [7] was 1, the Ki [8] was 899 nM and the “ratio of integrin Ki/αvβ3 Ki” value [8] was 1.9. For the same molecule, the Ki [9] was 1080 nM, the “ratio of integrin Ki/αvβ3 Ki” value [9] was 2.2 and the Ki [10] was 266 nM. The “ratio of integrin Ki/αvβ3 Ki” value [10] was 0.5.

B4: isoDGR#1-linker conjugate, peak P2 (peptide)
peptide: cyclo(C([SMCC-OH′])G[βAsp]GRG)
notes: HPLC peak P2 (carboxylic form, partial hydrolysis of sulfo-succinimide); also called isoDGR#1-P2
For B4, the Ki [11] was 33 nM, the “ratio of integrin Ki/αvβ3 Ki” value [11] was 1 and the Ki [12] was 52 nM. The “ratio of integrin Ki/αvβ3 Ki” value [12] was 1.6, the Ki [13] was 2730 nM and the “ratio of integrin Ki/αvβ3 Ki” value [13] was 80. For the same molecule, the Ki [14] was 10500 nM, the “ratio of integrin Ki/αvβ3 Ki” value [14] was 318 and the Ki [15] was 318 nM. For the same molecule, the “ratio of integrin Ki/αvβ3 Ki” value [15] was 9.6.

B5: isoDGR#3-linker conjugate, peak P2 (peptide)
peptide: cyclo(C(SMCC)[βAsp]GRGG)
modifications: not fully specified
notes: said to be similar to isoDGR#1-linker (P2 carboxylic form); also called isoDGR#3-P2
B5 gave a Ki [11] of 18 nM.
